Data from patent US20260139046A1 (ATTOVIA THERAPEUTICS, published 2026).

T1: human IL31 (human, UniProt Q6EBC2 24-164, biotinylated in the SPR assay (site not stated))
T1 sequence: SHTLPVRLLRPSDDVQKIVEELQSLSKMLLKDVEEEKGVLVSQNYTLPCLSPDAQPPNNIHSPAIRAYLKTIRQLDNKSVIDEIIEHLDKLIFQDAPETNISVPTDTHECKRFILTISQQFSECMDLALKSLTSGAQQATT

B1: 1C10 co-binder + huIgG1Fc_YTE_C→S (Fc fusion)
chain: EVQLVESGGGLVQAGGSLRLSCAASGGTFSSYTMGWFRQAPGKEREYVGGISSSGYVMYNSESMKGRFTISRENAKNMVYLQMNSLKPEDTAVYYCAAGTIGRPYDYWGQGTQVTVSSGGGSGGGGSGGGGSGGGGSGGGGSGGGGSGGGGSGMTGVKLEESGGGLVQPGGSLILSCAASGDISSIVAMGWYRQAPGKQRELVAAITSGGRTHYRDSVKGRFTISGNNDNSALYLHMNSLKPEDTAVYYCAADRGWTSVGEYDYWGKGTLVTVSSEPKSSDKTHTCPPCPAPELLGGPSVFLFPPKPKDTLYITREPEVTCVVVDVSHEDPEVKFNWYVDGVEVHNAKTKPREEQYNSTYRVVSVLTVLHQDWLNGKEYKCKVSNKALPAPIEKTISKAKGQPREPQVYTLPPSRDELTKNQVSLTCLVKGFYPSDIAVEWESNGQPENNYKTTPPVLDSDGSFFLYSKLTVDKSRWQQGNVFSCSVMHEALHNHYTQKSLSLSPGK
notes: VHH1-linker-VHH2-Fc; also called 1C10 WT; 1C10Fc
B2: 1D1 co-binder + huIgG1Fc_YTE_C→S (Fc fusion)
chain: EVQLVESGGGLVQAGGSLRLSCAASGGTFSSYAMAWFRQAPGKEREYVAGISSSGYTLYKSDSMKGRFTISRENAKNMVYLQMNSLKPEDTAVYSCAAGIFGRPYEYWGQGTLVTVSSGGGSGGGGSGGGGSGGGGSGGGGSPSMGVKLEESGGGLVQAGGSLILSCAASGDIPSIVAMGWYRQAPGKQRELVAAITSGGRTHYRDSVKGRFTISGNNDNSALYLHMNSLKPEDTAVYYCAADMGLTAVGEYDYWGQGTQVTVSSEPKSSDKTHTCPPCPAPELLGGPSVFLFPPKPKDTLYITREPEVTCVVVDVSHEDPEVKFNWYVDGVEVHNAKTKPREEQYNSTYRVVSVLTVLHQDWLNGKEYKCKVSNKALPAPIEKTISKAKGQPREPQVYTLPPSRDELTKNQVSLTCLVKGFYPSDIAVEWESNGQPENNYKTTPPVLDSDGSFFLYSKLTVDKSRWQQGNVFSCSVMHEALHNHYTQKSLSLSPGK
notes: VHH1-linker-VHH2-Fc; also called 1D1 WT; 1D1Fc
B3: 21H7 co-binder + huIgG1Fc_YTE_C→S (Fc fusion)
chain: EVQLVESGGGLVQAGGSLRLSCAASGGTFSSYTMGWFRQAPGKEREYVGGISSSGYVMYNSESMKGRFTISRENAKNMVYLQMNSLKPEDTAVYYCAAGTIGRPYDYWGQGTQVTVSSGGGSGGGGSGGGGSGGGGSGGGGSGGGGSGGGGSEGVGLVESGGGSVQAGDSLRLSCAASGRTFSTYIIGWFRQAPGKEREFVASISWGGRGTYYADSVKDRFTISRDNPKNMVYLQMNSLKPEDTAVYYCAAGDLPGGRRALDYDYWGQGTLVTVSSEPKSSDKTHTCPPCPAPELLGGPSVFLFPPKPKDTLYITREPEVTCVVVDVSHEDPEVKFNWYVDGVEVHNAKTKPREEQYNSTYRVVSVLTVLHQDWLNGKEYKCKVSNKALPAPIEKTISKAKGQPREPQVYTLPPSRDELTKNQVSLTCLVKGFYPSDIAVEWESNGQPENNYKTTPPVLDSDGSFFLYSKLTVDKSRWQQGNVFSCSVMHEALHNHYTQKSLSLSPGK
notes: VHH1-linker-VHH2-Fc; also called 21H7 WT; 21H7Fc
B4: 1H5 co-binder + huIgG1Fc_YTE_C→S (Fc fusion)
chain: EVQLVESGGGSVQAGGSLRLSCAASGGTFSSYAMAWFRQAPGKEREYVAGISSSGYTLYKSDSMKGRFTISRENAKNMVYLQMNSLKPEDTAVYSCAAGIFGRPYEYWGQGTQVTVSSGGGGSGGGGSGGGGSRSVGVQLVESGGGLVQAGGSLRLSCAASGSISSIHAMGWYRQAPGKQRELIAAITSGGRRHYRDSVKGRFTISGDNAKTNLYLQMNSLKPEDTAVYYCAADTGRVAVGEYDYWGQGTLVTVSSEPKSSDKTHTCPPCPAPELLGGPSVFLFPPKPKDTLYITREPEVTCVVVDVSHEDPEVKFNWYVDGVEVHNAKTKPREEQYNSTYRVVSVLTVLHQDWLNGKEYKCKVSNKALPAPIEKTISKAKGQPREPQVYTLPPSRDELTKNQVSLTCLVKGFYPSDIAVEWESNGQPENNYKTTPPVLDSDGSFFLYSKLTVDKSRWQQGNVFSCSVMHEALHNHYTQKSLSLSPGK
notes: VHH1-linker-VHH2-Fc

Columns and labels:
human IL31 [1] = target: T1, human IL31; assay: cell-based or functional assay
human IL31 [2] = target: T1, human IL31; assay: cell-based or functional assay; remark: listed apart in the source
human IL31 [3] = target: T1, human IL31; assay: cell-based or functional assay; remark: listed apart in the source
human IL31 [4] = target: T1, human IL31; assay: binding kinetics, large-scale material, baseline sample; method and target not restated (SPR on IL31 presumed)
human IL31 [5] = target: T1, human IL31; assay: SPR (Biacore T200, Biotin CAPture): biotinylated IL31 captured, co-binder Fc fusion as analyte
Procedure: (§1) Binding affinity was measured using Biotin CAPture Kit (Cytiva Life Sciences) and the BIACORE™ T200 SPR system (Cytiva Life Sciences). Initially, Biotin CAPture Reagent (Cytiva Life Sciences) was flowed to immobilize 3 nM biotinylated IL31 (ligand). 3 nM, 9 nM, and 27 nM anti-IL31 co-binders were flowed as analyte with 180 seconds association and running buffer was flowed with 3000 seconds dissociation. The sensor chip was regenerated by guanidine hydrochloride and sodium hydroxide.

human IL31 [6] = target: T1, human IL31; assay: binding kinetics after 3x freeze/thaw; method and target not restated (SPR on IL31 presumed)
human IL31 [7] = target: T1, human IL31; assay: KD of wild-type and humanized co-binders; method not restated (SPR as in Example 4 presumed)
human IL31 [8] = target: T1, human IL31; assay: SPR (Biacore T200, Biotin CAPture): biotinylated IL31 captured, co-binder Fc fusion as analyte; remark: listed apart in the source
Procedure: as §1

Activity (IC50, nM); pSTAT3 assay per Table 4 (human IL31 [1]) [nM] | Activity (IC50, nM), pSTAT3 assay (P^3) (human IL31 [2]) [nM] | EC50 (pSTAT3) nM (human IL31 [3]) [nM] | Kd (human IL31 [4]) [pM] | koff (human IL31 [4]) [s⁻¹] | kon (human IL31 [4]) [M⁻¹ s⁻¹] | Kd (human IL31 [5]) [pM] | Kd (human IL31 [6]) [pM] | koff (human IL31 [6]) [s⁻¹] | kon (human IL31 [6]) [M⁻¹ s⁻¹] | Kd (human IL31 [7]) [pM] | Kd (human IL31 [8]) [pM] | Binder
8.5 | 8.5 | 6.57 | 1500 | 0.00033 | 220000 | 58.7 | 3450 | 0.000675 | 196000 | 12.6 | 58.7 | B1
6.7 | 6.7 | 8.42 | 1940 | 0.000405 | 209000 | 24 | 3220 | 0.000628 | 195000 | 15.3 | 24 | B2
8.4 | 8.4 | 6.65 | 18600 | 0.00423 | 228000 | 14.8 | 19400 | 0.00435 | 224000 | 10.4 | 14.8 | B3
6.1 | 6.1 |  | 136 | 0.000138 | 1.01e+06 | 3.2 | 619 | 0.000551 | 890000 |  | 3.2 | B4
